The record followed here is patent US10562935B2, “Stapled peptides and uses thereof” (London Health Sciences Centre Research Inc., priority 2015, dated 2020).

Data set [1] deals with RHAMM-overexpressing (LR21) cells. Briefly: Cell invasion assay (Boyden chamber with MATRIGEL, Chemicon ECM555). The format is cell-based. Particulars: 10 ng/mL peptide; 20 hours; compared to 30% serum control. The procedure: Compounds 132, 133, 135, 150-153, 156, 265-269, and 275-278 were evaluated for their ability to inhibit cellular invasion. Invasion assays were performed using Chemicon Assay Kits ECM555 (Invasion); Billerica, Mass., USA) according to the manufacturer's protocol. Invasion assays are performed in an identical manner as the migration assays described above in Example 5, except that cells are required to invade through a layer of extracellular matrix (MATRIGEL) coating the filter that separates the upper and lower Boyden chambers. Briefly, sub-confluent cultures of RHAMM-overexpressing (LR21) cells were serum starved overnight before plating 7.5×10^4 cells in the upper chamber of a Boyden chamber either in the presence or absence of 10 ng/mL of peptide. 30% fetal bovine serum in DMEM was used as the chemo-attractant in the lower chamber. The number of cells that had crossed the membrane after 20 hours was assessed using the CYQUANT® GR Dye and lysis buffer solution provided in the kit. Fluorescence was measured with a fluorescent plate reader using 480/520 nm filter set.
Values the mean and SDM of n=3 replicates. *p<0.05, **p<0.01, ***p<0.001 All statistics compared to 30% serum control. In FIG. 49, where bars are labeled with two compound numbers (“152/135”) this means that the data were pooled for the indicated compound, i.e., for the non-acetylated and acetylated versions of the indicated peptide.

Data set [2] shares this test system. Nature of the data set: Cell migration assay (Boyden chamber, Chemicon ECM510). Particulars: 10 ng/mL peptide; 20 hours; compared to 30% serum control. The format is cell-based. The procedure: Compounds 132, 133, 150-152, 156-161, 265-269, 275, 277, and 278 were evaluated for their ability to inhibit cell migration. Cell migration assays were performed using Chemicon Assay Kits (ECM510 (Migration); Billerica, Mass., USA) according to the manufacturer's protocol. Briefly, sub-confluent cultures of RHAMM-overexpressing (LR21) cells were serum starved overnight. 7.5×10^4 cells were then plated in the upper chamber of a Boyden chamber. either in the presence or absence of 10 ng/mL of peptide. 30% fetal bovine serum in DMEM was used as the chemo-attractant in the lower chamber. The number of cells that had crossed the membrane after 20 hours was assessed using the CYQUANT GR Dye and lysis buffer solution provided in the kit. Fluorescence was measured with a fluorescent plate reader using a 480/520 nm filter set.
Values are the mean and SDM of n=3 replicates. *p<0.05, **p<0.01. All statistics compare to 30% serum control. In FIGS. 41-43, where bars are labeled with two compound numbers (“133/150” and “135/152”) this means that the data were pooled for the indicated compounds, i.e., for the non-acetylated and acetylated versions of the indicated peptides.

Data set [3] can be described thus: Circular dichroism (CD) spectroscopy of HABD2 peptides in Milli-Q water (Example 1). In kind it is physicochemical. Particulars: for [θ]222/[θ]208 ratio of ellipticities / fH fraction helicity / Molar ellipticity [θ]192 / Molar ellipticity [θ]208 / Molar ellipticity [θ]222: 0.5 mM in Milli-Q water; for fH fraction helicity: equations 1-3; for α-helical character by CD (in words): Milli-Q water; for Molar ellipticity [θ]192: λ = 192 nm; for Molar ellipticity [θ]208: λ = 208 nm; for Molar ellipticity [θ]222: λ = 222 nm. An excerpt: In addition, a large mean residue ellipticity indicates greater α-helical character. […] This was predicted to be the case, as there is a lack of contributing residues that might form a hydrophobic core, thereby helping to stabilize the secondary structure of the linear peptide. For this reason, bridges were introduced into the peptides. […] The differences in α-helicity induced by the bridges placed at different points within each peptide may be due to the differences in their primary sequences. Specifically, two amino acids (at the i and i+4 position) have to be replaced in order to form the lactam bridge. In compound 133, leucine was replaced at both the i and i+4 position; while in compound 136, glutamine was replaced at the i position and aspartic acid was replaced at i+4. Leucine and glutamine are proposed to be helix-stabilizing residues.
A larger portion of the RHAMM protein was used as the reference for α-helical character of the truncated peptides. 7 kDa RHAMM (SEQ ID NO: 1) is a mini protein that is composed of 62 amino acids, which was derived from the C-terminus of the full-length RHAMM sequence. It contains both HABDs, and is predicted to have almost complete α-helix shape, similar to that of native full-length RHAMM.
A peptide's α-helicity can be quantified using equations 1-3: fH=[([θ]obs222−[θ]c)/([θ]max222−[θ]c)] (Equation 1) [θ]c=2220+53T (Equation 2) [θ]max222=(−44000+250T)(1−k/N) (Equation 3) where fH is the ratio of the average number of helical hydrogen bonds divided by the total number of hydrogen bonds that can be found in a peptide, T is the temperature in degrees Celsius, N is the number of residues in the peptide and k is a constant of ellipticity when 100% of the structure is α-helical (3 for carboxyamidated peptides).
Milli-Q water was chosen as the solvent in which all peptides would be dissolved for CD spectroscopy, as it is a UV invisible solvent, which is a requirement of the analytical technique, and it represents RHAMM's natural environment in the body. Luo and Baldwin [18] stated that when peptides are taken out of their native protein sequence, they usually show little to no helical formation in water alone. For this reason, TFE/H2O solutions are commonly used in studies to observe the α-helix characteristics, and may improve the helical nature of the peptides observed here. However, a helix-stabilizing solvent, such as TFE, would not be as contextually relevant, as there are no solvent stabilizing effects in the body. Thus use of TFE would tend to produce skewed results and not be representative of the peptide's natural behavior.
For orientation: Circular dichroism is widely used to follow secondary structure.

The test system of a further data set is NF-κB. Nature of the data set: Inflammation assay: NF-κB inducible SEAP reporter in RAW-Blue macrophages stimulated with PAM3CSK4. In kind it is cell-based, murine. Particulars: 10 ng/mL peptide with 200 ng/mL PAM3CSK4; 18 hours; compared to +PAM3. The procedure:
Compounds 132, 133, 135, 150, 152, 157-161, 265-269, 275, 277, and 278 were evaluated for their ability to inhibit inflammation. To determine the effect of the peptides on inflammation, commercially available murine RAW 264.7 macrophages carrying a secreted embryonic alkaline phosphatase (SEAP) reporter that is inducible by NF-κB (RAW-Blue; InvivoGen, San Diego, Calif., USA) were used. Cells were grown to 80% confluence in DMEM containing 4.5 g/L glucose, 10% heat-inactivated fetal bovine serum, 2 mM L-glutamine, 50 μg/mL penicillin/streptomycin, 100 μg/mL Normocin (InvivoGen) at 37° C. in 5% CO2. For peptide screening experiments, cells were scraped in growth medium, counted, and plated to flat-bottom 96-well plates at a density of 5×10^4 cells/well either in the presence or absence (control) of 200 ng/mL TLR1/TLR2 agonist PAM3CSK4 (InvivoGen). Peptides were added in 6 replicate wells at a dose of 10 ng/mL in the presence of PAM3CSK4. After 18 hours of stimulation, SEAP concentrations (indicating NF-κB activity) were measured in the supernatants collected from the RAW-Blue cells using QUANTI-BLUE reagent (InvivoGen). After 20 minutes of incubation at 37° C., SEAP levels were determined using spectrophotometry at a wavelength of 630 nm.
Values are the mean and SDM of n=3 replicates. *p<0.05 and ***p<0.001 compared to +PAM3. In FIGS. 44 and 45, where bars are labeled with two compound numbers (“133/150” and “135/152”) this means that the data were pooled for the indicated compounds, i.e., for the non-acetylated and acetylated versions of the indicated peptides.

Bridges are numbered along the chain shown (N, C = ends).

For the substance “H-(cyclo-4,8)-VSK[ERSQK]VKRKQN-NH2 (H-VSKERSQKVKRKQN-NH2; lactam 4-8; SMILES CC(C)[C@H](N)C(=O)N[C@@H](CO)C(=O)N[C@@H](CCCCN)C(=O)N[C@H]1CCC(=O)NCCCC[C@@H](C(=O)N[C@H](C(=O)N[C@@H](CCCCN)C(=O)N[C@@H](CCCNC(=N)N)C(=O)N[C@@H](CCCCN)C(=O)N[C@@H](CCC(N)=O)C(=O)N[C@@H](CC(N)=O)C(N)=O)C(C)C)NC(=O)[C@H](CCC(N)=O)NC(=O)[C@H](CO)NC(=O)[C@H](CCCNC(=N)N)NC1=O) [Compound 133]”, the “inhibition of cellular invasion (in words)” value in data set [1] was “significantly inhibited cellular invasion”. For the same substance, the “inhibition of cell migration (in words)” value in data set [2] is recorded as “significantly inhibit cell migration”. In data set [3], the “[θ]222/[θ]208 ratio of ellipticities” value is listed as 0.45, the fH fraction helicity is on record as 0.17, the “α-helical character by CD (in words)” value is “did not seem to stabilize” and the “Molar ellipticity [θ]192” value is listed as 1733.35 deg cm^2 dmol^−1 residue^−1. For the same substance, in data set [3], the “Molar ellipticity [θ]208” value is recorded as −5010.81 deg cm^2 dmol^−1 residue^−1 and the “Molar ellipticity [θ]222” value is recorded as −2260.92 deg cm^2 dmol^−1 residue^−1.

On to “H-(cyclo-6,10)-VSKLR[EQLVK]RKQN-NH2 (H-VSKLREQLVKRKQN-NH2; lactam 6-10; SMILES CC(C)C[C@H](NC(=O)[C@H](CCCCN)NC(=O)[C@H](CO)NC(=O)[C@@H](N)C(C)C)C(=O)N[C@@H](CCCNC(=N)N)C(=O)N[C@H]1CCC(=O)NCCCC[C@@H](C(=O)N[C@@H](CCCNC(=N)N)C(=O)N[C@@H](CCCCN)C(=O)N[C@@H](CCC(N)=O)C(=O)N[C@@H](CC(N)=O)C(N)=O)NC(=O)[C@H](C(C)C)NC(=O)[C@H](CC(C)C)NC(=O)[C@H](CCC(N)=O)NC1=O) [Compound 135]”, for which the “inhibition of cellular invasion (in words)” value in data set [1] is “significantly inhibited cellular invasion”. Besides, the “inhibition of inflammation (SEAP / NF-κB activity, in words)” value with NF-κB was “significantly inhibited inflammation”. Also, the “inhibition of cell migration (in words)” value in data set [2] is “significantly inhibit cell migration”. Moreover, in data set [3], the “[θ]222/[θ]208 ratio of ellipticities” value came to 0.55, the fH fraction helicity is on record as 0.22, the “α-helical character by CD (in words)” value is listed as “increase in α-helix structure” and the “Molar ellipticity [θ]192” value was 1245.85 deg cm^2 dmol^−1 residue^−1. Also, in data set [3], the “Molar ellipticity [θ]208” value is reported as −7906.16 deg cm^2 dmol^−1 residue^−1 and the “Molar ellipticity [θ]222” value was −4400.73 deg cm^2 dmol^−1 residue^−1.
